Assay: yeast display, Sf9 membrane polyspecificity reagent, FACS + sequencing; frameworks hold sequencing errors
Outline: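 Genes from sorted yeast were amplified by colony PCR, read by MiSeq 2 × 250 sequencing and filtered on CDR length. These cells carried a synthetic nanobody library in Saccharomyces cerevisiae BJ5465 and were sorted by FACS into low and high (top ~1%) gates on anti-HA and streptavidin fluorescence. Polyreactivity is labelled according to the gate of origin.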

Row | Sequence | polyreactivity (PSR sort gate)
1 | QVQLVESGGGLVQAGGSLRLSCAASGITLFGYAMGWYRQAPGKERELVAAITSGGSTYYADSVKGRFTISRDNAKNTVYLQMNSLKPEDTAVYYCATSYVYYKYYSQEIYVYGFEYWGQGTQVTVSS | high polyreactivity
2 | QVQLVESGGGLVQAGGSLRLSCAASGITLGTYVMGWYRQAPGKERELVAAISSGGSTYYADSVKGRFTISRDNAKNTVYLQMNSLKPEDTAVYYCAAQYYPYYDSRVSYDYWGQGTQVTVSS | low polyreactivity
3 | QVQLVESGGGLVQAGGSLRLSCAASGITLGYYAMGWYRQAPGKERELVAAITWSGTSTYYADSVKGRFTISRDNAKNTVYLQMNSLKPEDTAVYYCAAGFISQYQERGYWGQGTQVTVSS | low polyreactivity
4 | QVQLVESGGGLVQAGGSLRLSCAASGITLINYAMGWYRQAPGKERELVAAISTSGSSTYYADSVKGRFTISRDNAKNTVYLQMNSLKQEDTAVYYCNAEGQPLYVSWHDHRYIYGFDYWGQGTQVTVSS | low polyreactivity
5 | QVQLVESGGGLVQAGGSLRLSCAASGITLNRNAMGWYRQAHGKERELVARISRRGGTTYYADSVKGRFTISRDNAKNTVYLQMNSLKPEDTAVYYCNAGPYGGNPFDYWGQGTQVTVSS | high polyreactivity
6 | QVQLVESGGGLVQAGGSLRLSCAASGITLNRNAMGWYRQAPGKERELVSRISRRGGTTYYADSVKGRFTISRDNAKNTVYLLMNSLKPEDTAVYYCNAGPYGGNPFDYSGQGTQVTVSS | high polyreactivity
7 | QVQLVESGGGLVQAGGSLRLSCAASGITLRRNAMGWYRQATGKERELVAAISWSGGRTYYADSVKGRFTISRDNAKNTVYLQMNSLKPEDTAVYYCAARGYPLTAIDYWGQGTQVTVSS | high polyreactivity
8 | QVQLVESGGGLVQAGGSLRLSCAASGITLSTYAMGWYRPAPGKERELVATITGNGDRTYYADSVKGRFTISRDNAKNTVYLQMNSLKPEDTAVYYCAKDSPGDGIGYGYWGQGTQVTVSS | low polyreactivity
9 | QVQLVESGGGLVQAGGSLRLSCAASGITLSYNVMGWYRQEPGKEREFVAAITGGRTYYADSVKGRFTISRDNAKNTVYLQMNSLKPEDTAVYYCAADAPGHEYYYWGQGTQVTVSS | high polyreactivity
10 | QVQLVESGGGLVQAGGSLRLSCAASGITLSYYAMGWYGPAPGKERELVAAISSNGGRTYYADSVMGRFTISRDNAKNTVYLQMNSLKPEDTAVYYCAARVYDYPRFGYWGQGTQVTVSS | high polyreactivity
11 | QVQLVESGGGLVQAGGSLRLSCAASGITLYDNAMGWYRQAPGKERELVAAINVNDVSTYYADSVKGRFTISRDNAKNTVYLQKNSLKPEDTAVYYCAADSLYYGIGYWVVRYDYWGQGTQVTVSS | low polyreactivity
12 | QVQLVESGGGLVQAGGSLRLSCAASGITLYINAMGWYRQAPGKERELVAAITRIGGRTYYADSVKGRFTISRDNAKNTVYLQMNSLKPEDTAVYYCNARTYNAFNYWGQGTQVTVSS | high polyreactivity
13 | QVQLVESGGGLVQAGGSLRLSCAASGITLYKYAMGWYRQAPGKERELVASISRSGGSTYYADSVKGRFTISRDNAKNTVYLQMNSLKPEDTAVYYCNARAKSYRFGYWGQGTQVTVSS | high polyreactivity
14 | QVQLVESGGGLVQAGGSLRLSCAASGITLYLNAMGWYRQAPGKERELVAAITASGGSTYADSVKGRFTISRDNAQNTVYLQMNSLKPEDTAVYYCAADVIYEYYFTFGVGYYEYDYWGQGTQVTVSS | low polyreactivity
15 | QVQLVESGGGLVQAGGSLRLSCAASGITLYRYVMGWYRQAPGKERELVADISGRGTSTYYADSVKGRFTISRDNAKNTVYLQMNSLKPEETAVYYCNAEYTKTGALVIPYTYYYAEDYWGQGTQVTVSS | low polyreactivity
16 | QVQLVESGGGLVQAGGSLRLSCAASGITLYYNAMGWYRQAPGKESELVAAITWSGSRTYYADSVKGRFTISRDNAKNTVYLQMNSLKPEDTAVSYCAADVDFWNTVEDMDYWGQGNQVTVSS | low polyreactivity
17 | QVQLVESGGGLVQAGGSLRLSCAASGITSGNNAMGWYRQAPGKERELVAAISWTGGSTYYADSVKGRFTISRDNAKNTVYLEMNSLKPEDTAVYYCAAGGWDPFTEQHYEYWGQGTQVTVSS | low polyreactivity
18 | QVQLVESGGGLVQAGGSLRLSCAASGITSGTYAMGRYRQAPGKERELVAGISRSGTRTYYADSVKGRFTISRDNAKNTVYLQMNSLKPEDTEVYYCNTYVGRRPGYGYWGQGTQVTVSS | high polyreactivity
19 | QVQLVESGGGLVQAGGSLRLSCAASGITSHPYDMGWYRQAPGKERELVAVITSGGSTSYADSVKGRFTISRDNAKNTVYLQMNSLKPEDTAVYYCNADSWYAWYSYGYDYWGQGTQVTVSS | low polyreactivity
20 | QVQLVESGGGLVQAGGSLRLSCAASGITSSLNAMGWYRQAPGKERELVAAISWRGGSTYYADSVKGRFTISRDNAKNTVYLQMNSLKPEDTAVYYCAARSSYRKMDYWGQGTQVTVSS | high polyreactivity
21 | QVQLVESGGGLVQAGGSLRLSCAASGITSSTYAMGWYRQAPGKERELVAAISLSGSSTNYADSVKGRFTISRDNAKNTVYLQMNSLKPEDTAVYYCAATNYRTYPYGYWGQGTQVTVSS | high polyreactivity
22 | QVQLVESGGGLVQAGGSLRLSCAASGITSYYYTMGWYRQAPGKERELVAAITSGGSTYYADSVKGRFTISRDNAKNSVYLQMNSLKPEDTAVYYCTADNPRYRGSKYGPYDDYNYWGQGTQVTVSS | low polyreactivity

Row | Sequence | polyreactivity (PSR sort gate)
23 | QVQLVESGGGLVQAGGSLRLSCAASGITVLKYVMGWYRQAPGKEREFVAAITARGGTTYYADSVKGRFTISRDNAKNTVYLQMNSLKQEDTAVYYCAARSYYSGLAYYYWGQGTQVTVSS | high polyreactivity
24 | QVQLVESGGGLVQAGGSLRLSCAASGITYGIYSMGWYRQAPGKERELVAAIDGSDGSTYYADSVKGRFTISRDNAKNTVYLQMNSLKPEDTAVYYCNADTGGYYVTGSYLYNEYDYWGQGTQVTVSS | low polyreactivity
25 | QVQLVESGGGLVQAGGSLRLSCAASGITYTSYAMGWYRQAPGKERELVAAISSSGGSTYYADSVKGRFTISRDNAKNTVYLQMNSLKPEDTAVYYCIARPRSRSPRVEYDYWGQGTQVTVSS | high polyreactivity
26 | QVQLVESGGGLVQAGGSLRLSCAASGITYVSNAMGWYRQAPGKERELFAANTRRGTSTYYADSVKGRFTLSRDNAKNTVYLQMNSLKPVDTAVYYCNKVWKYSSSGFGKEVYGYDYWGQGTQVTVSS | high polyreactivity
27 | QVQLVESGGGLVQAGGSLRLSCAASGIYAMGWYRQAPGKERELVAAIRWSGGSTYYADSVKGRFTISRDNAKNTVYLQMNSLKPEDTAVYYCAKRLRPGGYWYDYWGQGTQVTVSS | high polyreactivity
28 | QVQLVESGGGLVQAGGSLRLSCAASGIYYNAMGWYRHAPGKERELVAAITTGDRTNYADSVKGRFTISRDNAKNTVYLQMNSLKPEDTAVYYCNAVVERLSSTARDFAYDYWGQGTQVTVSS | low polyreactivity
29 | QVQLVESGGGLVQAGGSLRLSCAASGLAFVFNAMGWYRQAPGKERELVAAISSGDDTNYADSVKGRFTISRDNAKNTVYLQMNSLKPEDTAVYNCAKTSDPIKRPYYYWGQGTQVTVSS | low polyreactivity
30 | QVQLVESGGGLVQAGGSLRLSCAASGLFFFYYAMGWYRQAPGKERELDAAIRTNYADSVKGRFTISRDNAKNTVYLQMNSLKPEDTAVYYCAAESSQTPTSAFDYWGQGTQVTVSS | low polyreactivity
31 | QVQLVESGGGLVQAGGSLRLSCAASGLIFAHYAMGWYRQAPGTERELVAGITSGGSTNYADSVKGRFTISRDNAKNTVYLQMNSLKPEDTAVYYCNADRAGFLGFYLYDYWGQGTQVTVSS | low polyreactivity
32 | QVQLVESGGGLVQAGGSLRLSCAASGLIFARNAMGWYRQAPGKERELVAAISRSGSTNYADSVKGRFTISRDNAKNTVYLQMNSLIPEDTAVYYCAAGPWGTGHYVQGPVYYYRYDYWGQGTQVTVSS | low polyreactivity
33 | QVQLVESGGGLVQAGGSLRLSCAASGLIFARNAMGWYRQAPGKERELVAAISSSGNTYADSVKGRFTISRDNAKNTVYLQMNSLKPEDTAVYYCNKYGVVLPGFDYWGQGTQVTVSS | high polyreactivity
34 | QVQLVESGGGLVQAGGSLRLSCAASGLIFDDYDMGWYRQAPGKERELVAAISLSGGSTFYADSVKGRFTISRDNAKNTVYLLMNSLKPEDTAVYYCAAQARRAYVQTRKYYWGQGTQVTVSS | high polyreactivity
35 | QVQLVESGGGLVQAGGSLRLSCAASGLIFDINAMGWYRQAPGKERDLVAAISFSDGITYYADSVKGRFTISRDNAKNTVYLHMNSLKPEDTAVYYCAVDYRIYRSGPMDYWGQGTQVTVSS | high polyreactivity
36 | QVQLVESGGGLVQAGGSLRLSCAASGLIFDYYAMGWYRQAPGKERELVAAITSSSGITYYADSVKGRFTISRDNAKNTVYLQMNSLKPEDTAVYYCAAYTTYKLYEYDYWGQGTQVTVSS | low polyreactivity
37 | QVQLVESGGGLVQAGGSLRLSCAASGLIFEEYAMGWYRQAPGKERELVAGIDSSGSTNYADSVKGRFTISRDNAKNTVYLQMNSLKPEDTAVYYCTARGYYPRWYYVFRGNYWGQGTQVTVSS | low polyreactivity
38 | QVQLVESGGGLVQAGGSLRLSCAASGLIFFYYAMGWYRQAPGKERELVATINWNGGSTYYADSVKGRFTISRDNAKNTVYLQMNSLKPEDTAVYYCAADAPAGGDSDNDYWGQGTQVTVSS | high polyreactivity
39 | QVQLVESGGGLVQAGGSLRLSCAASGLIFGFYAMGWYRQAPGKERELVAAINSGGITYYADSVKGRFTISRDNAKNTVYFQMNSLKPEDTAVYYCNKDSHISTAYDYWGQGTQVTVSS | low polyreactivity
40 | QVQLVESGGGLVQAGGSLRLSCAASGLIFGGNAMGWYRQAPGKERELVAAISRTGGRTYYADSVKGRFTISRDNAKNTVYLQMNSLKPDDTAVYFCAAAAQRPEGYYWGQGTQVTVSS | high polyreactivity
41 | QVQLVESGGGLVQAGGSLRLSCAASGLIFGGNAMGWYRQAPGKERELVAAITYRTGSTYYADSVKGRFTISRDNAKITVYLQMNSLKPEDTAVYDCAAAVSLGYPVAFYYWGQGTQVTVSS | low polyreactivity
42 | QVQLVESGGGLVQAGGSLRLSCAASGLIFGGYTMGWYRQAPGKERELVAAIDSGGSTKYADSVKGRFTISRDNAKNTVYLQMNSLKPEDTAVYYCAARDYYAWRYRYHHEVSEFDYWGQGTHVTVSS | low polyreactivity
43 | QVQLVESGGGLVQAGGSLRLSCAASGLIFGNNAMGWYRQAPGKERELVAAISWSTGGSTYYADSVKGRFTISRDNAKNTVYLQMNSLKPEDTAVYYCAAQYSYGEYWGYDYWGQGTQVTVSS | low polyreactivity
